Results reported in patent publication US20260103513A1.

Experiments:
[1] = molecular target: TIGIT protein overexpressed on cells (Homo sapiens (Human)) (UniProt Q495A1); assay: flow cytometry on 293T-TIGIT cells, Alexa-647 anti-human Fc, MFI
[2] = molecular target: Cynomolgus monkey TIGIT-His tag fusion protein (cynomolgus monkey); assay: ELISA, cynomolgus TIGIT-His coated, HRP anti-human IgG, OD450
Sequence of Cynomolgus monkey TIGIT-His tag fusion protein (cynomolgus monkey) (chain, as listed by the source): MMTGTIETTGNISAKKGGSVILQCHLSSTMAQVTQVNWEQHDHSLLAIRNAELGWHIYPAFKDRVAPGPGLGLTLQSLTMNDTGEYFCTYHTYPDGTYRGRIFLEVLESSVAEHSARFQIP

Sequence of TIGIT protein overexpressed on cells (Homo sapiens (Human)) (Q495A1 22-244): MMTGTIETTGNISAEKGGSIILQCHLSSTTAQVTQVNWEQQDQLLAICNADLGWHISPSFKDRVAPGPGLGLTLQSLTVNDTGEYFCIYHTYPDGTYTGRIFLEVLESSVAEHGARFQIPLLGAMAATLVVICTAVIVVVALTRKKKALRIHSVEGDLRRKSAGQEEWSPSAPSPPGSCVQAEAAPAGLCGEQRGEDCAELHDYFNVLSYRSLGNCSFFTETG

EC50 (read off the curve) [1]: 0.4 µg/mL
EC50 (read off the curve) [2]: 0.08 µg/mL
Substance: Tiragolumab analog (antibody)
